In data set [1] the test system is control peptide, an HES-bearing peptide of the same length, with the same labeling, that does not contain the conformation-dependent cleavage site.
Data set [2] has as its system eighteen amino acid peptide containing the amino acid sequence PLGIA, covalently labeled with the same fluorophore near each end (HES structure).

On to matrix metalloprotease-9 (MMP-9), for which the “fluorescence intensity on addition of the MMP” value in data set [1] is reported as “The fluorescence of the latter does not increase upon addition of the MMP”. Further, in data set [2], the “fluorescence intensity on cleavage of the HES peptide (peptide at 2 uM, pH 7.5 buffer)” value is “Cleavage of the peptide gives rise to an increase in fluorescence intensity”; the “reverse-phase HPLC retention time of the peptide before and after exposure to the protease” value was “After exposure to MMP-9, the major peaks were at ca. 30 and 31 minutes with the almost complete disappearance of the 38 minute peak”.

Source of the values: patent publication US20230065782.
